As usually defined, the Kd is the free concentration of one partner at which half of the binding sites on the other are occupied at equilibrium, for simple one-to-one binding.

Experiment [1] concerns the target Nedd^335-455pS342 + pT367 (human, UniProt Q96PU5 335-455, S448A, phosphoserine at 342, phosphothreonine at 367). Description: AUC.
Experiment [2] concerns the target Nedd^335-455pT367 + pS448 (human, UniProt Q96PU5 335-455, S342A, phosphothreonine at 367, phosphoserine at 448). Description: AUC.

B1: 14-3-3η (natural protein)
chain: MGDREQLLQRARLAEQAERYDDMASAMKAVTELNEPLSNEDRNLLSVAYKNVVGARRSSWRVISSIEQKTMADGNEKKLEKVKAYREKIEKELETVCNDVLSLLDKFLIKNCNDFQYESKVFYLKMKGDYYRYLAEVASGEKKNSVVEASEAAYKEAFEISKEQMQPTHPIRLGLALNFSVFYYEIQNAPEQACLLAKQAFDDAIAELDTLNEDSYKDSTLIMQLLRDNLTLWTSDQQDEEAGEGN
With B1, the Kd was determined as 200 nM in experiment [1] and 170 nM in experiment [2].

The record behind these values is PMC8298602 (2021).
